In PMC12393466 (2025):
No end group written: not given here.

T1: P01.1 peptide
T1 chain: KKIVTILKKLVK

T2: P01.3 peptide
T2 chain: KKIVEILKKLVK


How the values were obtained:
P01.1 peptide = target: T1, P01.1 peptide; test: concentration-dependent circular dichroism (222 nm, 40% TFE)
P01.3 peptide = target: T2, P01.3 peptide; test: as above

Kd (P01.1 peptide) [µM]	Kd (P01.3 peptide) [µM]	Binder
769		KKIVTILKKLVK-NH2 [P01.1 peptide]
	51.5	Ac-KKIVEILKKLVK-NH2 [P01.3 peptide]
